We go through five molecules from patent publication US20240083986A1 (published 2024).

The Kd is the constant that tells how readily two partners part at equilibrium. Higher therefore signals weaker binding. As usually defined, the koff is the first-order rate constant of dissociation. A higher koff goes with a short-lived complex. As usually defined, the kon is the second-order rate constant of association. Broadly, the t½ is how long it takes for the measured level to halve. Lower therefore signals rapid decline.

Where a chain is given by its changes, count along the chain named. Names and notes keep the numbering of the source.

The target of test [1] is T1, natural Bet v 1 (Betula verrucosa (Betula pendula), UniProt P15494 2-160).
T1 construct: bought natural protein (Indoor Biotechnologies #NA-BV1-1); also called nBet v 1; Biotinylated Bet v 1
T1 chain: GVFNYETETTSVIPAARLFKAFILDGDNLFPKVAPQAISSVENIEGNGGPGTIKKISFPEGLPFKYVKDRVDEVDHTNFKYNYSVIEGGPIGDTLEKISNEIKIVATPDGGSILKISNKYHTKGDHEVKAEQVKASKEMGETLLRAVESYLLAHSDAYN
Put plainly: blocking ELISA, biotin nBet v 1 to captured IgE, donor 29718-MW. (ELISA stands for enzyme-linked immunosorbent assay.)

The target in test [2] is T1, natural Bet v 1. Put plainly: dose-response blocking ELISA, biotin nBet v 1 to captured IgE, donor 25340-RR.
Test [3] concerns the target T1, natural Bet v 1. Kind of test: blocking ELISA, biotin nBet v 1 to captured IgE, donor 25340-RR.
Test [4] concerns the target T1, natural Bet v 1. Put plainly: blocking ELISA, biotin nBet v 1 to captured IgE, donor 25414-CW.
The target in test [5] is T1, natural Bet v 1. Put plainly: blocking ELISA, biotin nBet v 1 to captured IgE, donor 25609-MS.
Test [6] deals with T1, natural Bet v 1. Put plainly: dose-response blocking ELISA, biotin nBet v 1 to captured IgE, donor 23939-MH.
Test [7] addresses T1, natural Bet v 1. Kind of test: blocking ELISA, biotin nBet v 1 to captured IgE, donor 26532-CC.
Test [8] has as its target T1, natural Bet v 1. Put plainly: blocking ELISA, biotin nBet v 1 to captured IgE, donor 25299-RJ.
Test [9] concerns the target T1, natural Bet v 1. Put plainly: dose-response blocking ELISA, biotin nBet v 1 to captured IgE, donor 25609-MS.
In test [10] the target is T1, natural Bet v 1. Put plainly: blocking ELISA, biotin nBet v 1 to captured IgE, donor 23939-MH.
Test [11] has as its target T1, natural Bet v 1. Kind of test: blocking ELISA, biotin nBet v 1 to captured IgE, donor 23035-BL.
Test [12] has as its target T2, natural Bet v 1 (Indoor, Cat #NA-BV1-1) (Betula verrucosa (European white birch, …, UniProt P15494 2-160)).
T2 construct: Bought natural protein purified from birch pollen; also called nBet v 1
T2 sequence: T1 chain with L62F
Put plainly: SPR Biacore, mAb captured on anti-hFc, 25C. (SPR reads the build-up and loss of mass on a sensor chip optically.)

Test [13] deals with T2, natural Bet v 1 (Indoor, Cat #NA-BV1-1). Put plainly: SPR Biacore, mAb captured on anti-hFc, 37C.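 Further: purified anti-Bet v 1 monoclonal antibodies, HBS-ET running buffer pH 7.4, rate constants from 1:1 model fit with mass transport limitation, KD and t½ calculated from kinetic constants.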
Test [14] has as its target T3, mutant Bet v 1-MMH (Betula verrucosa (European white birch, …)).
T3 construct: also called CHO produced recombinant Bet v 1 containing a S85A mutation with a C-terminal myc-myc hexahistidine tag
T3 chain: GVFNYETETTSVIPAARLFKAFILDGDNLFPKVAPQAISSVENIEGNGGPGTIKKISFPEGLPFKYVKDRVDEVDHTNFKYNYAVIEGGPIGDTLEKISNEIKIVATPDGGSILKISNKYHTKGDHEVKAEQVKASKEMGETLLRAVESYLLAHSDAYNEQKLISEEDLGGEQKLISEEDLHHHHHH
Put plainly: BLI Octet HTX, mutant Bet v 1-MMH captured on anti-Penta-His tips, 25C. In general terms: Biolayer interferometry detects binding as a change in optical thickness at a sensor tip.

In test [15] the target is T4, Celery (Api g 1, MyBiosource, Cat #MBS1171376) (Celery, UniProt P49372 1-154, limits assumed).
T4 construct: Bought reagent
T4 sequence (looked up): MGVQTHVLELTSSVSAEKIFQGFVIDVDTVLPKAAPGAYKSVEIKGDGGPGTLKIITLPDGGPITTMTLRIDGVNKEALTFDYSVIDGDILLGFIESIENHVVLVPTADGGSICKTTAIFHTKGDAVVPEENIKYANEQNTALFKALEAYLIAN
Put plainly: SPR Biacore, 25C.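 Further: binding of related allergens to purified monoclonal anti-Bet v 1 antibodies by surface plasmon resonance in HEPES-buffered saline pH 7.4, kinetics fitted to a 1:1 model with mass transport.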

Test [16] deals with T5, Apple (Mal d 1, MyBiosource, Cat #MBS1224919) (Apple, UniProt P43211 2-159, limits assumed).
T5 construct: Bought reagent
T5 sequence (looked up): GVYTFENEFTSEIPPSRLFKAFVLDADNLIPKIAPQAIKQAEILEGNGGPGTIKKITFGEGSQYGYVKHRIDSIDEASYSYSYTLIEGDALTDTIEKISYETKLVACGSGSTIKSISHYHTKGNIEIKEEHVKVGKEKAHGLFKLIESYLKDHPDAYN
Kind of test: SPR Biacore, 25C.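 Further: binding of related allergens to purified monoclonal anti-Bet v 1 antibodies by surface plasmon resonance in HEPES-buffered saline pH 7.4, kinetics fitted to a 1:1 model with mass transport.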

Test [17] has as its target T6, European Hornbeam (Car b 1 isoform 1A & 1B, MyBiosource, Cat #MBS1200018) (European Hornbeam, UniProt P38949 2-160).
T6 construct: Bought reagent
T6 sequence (looked up): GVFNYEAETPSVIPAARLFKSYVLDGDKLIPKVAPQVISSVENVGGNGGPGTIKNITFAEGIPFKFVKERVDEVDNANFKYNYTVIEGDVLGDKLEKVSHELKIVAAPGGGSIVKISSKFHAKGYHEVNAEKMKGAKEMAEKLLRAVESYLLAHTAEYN
Put plainly: SPR Biacore, 25C.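 Further: binding of related allergens to purified monoclonal anti-Bet v 1 antibodies by surface plasmon resonance in HEPES-buffered saline pH 7.4, kinetics fitted to a 1:1 model with mass transport.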

Test [18] addresses T7, European Hornbeam (Car b 1 isoform 2, MyBiosource, Cat #MBS1043940) (European Hornbeam, UniProt P38950 2-160, limits assumed).
T7 construct: Bought reagent
T7 sequence (looked up): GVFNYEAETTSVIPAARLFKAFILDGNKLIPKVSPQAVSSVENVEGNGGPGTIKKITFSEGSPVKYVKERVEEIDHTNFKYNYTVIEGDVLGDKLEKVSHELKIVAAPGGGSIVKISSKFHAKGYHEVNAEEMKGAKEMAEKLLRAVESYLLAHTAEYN
Put plainly: SPR Biacore, 25C.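 Further: binding of related allergens to purified monoclonal anti-Bet v 1 antibodies by surface plasmon resonance in HEPES-buffered saline pH 7.4, kinetics fitted to a 1:1 model with mass transport.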

The target of test [19] is T8, Alder (Aln g 1, MyBiosource, Cat #MBS1041484) (Alder, UniProt P38948 2-160, limits assumed).
T8 construct: Bought reagent
T8 sequence (looked up): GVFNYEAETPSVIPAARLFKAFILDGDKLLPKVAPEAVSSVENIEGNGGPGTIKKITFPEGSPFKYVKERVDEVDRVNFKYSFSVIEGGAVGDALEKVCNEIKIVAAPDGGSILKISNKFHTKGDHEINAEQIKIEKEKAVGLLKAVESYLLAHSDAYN
Kind of test: SPR Biacore, 25C.

B1: H4H17082P2 (antibody, human IgG4 S228P, kappa, V domains shown)
VH: QVQLVQSGAEVKKPGASVKVSCKASGYTFISYNIFWVRQATGQGLDWMGWMNPFRNNAGYAQKFQGRVTVTWDTSISTAYMELSSLSSEDTAIYYCAREHGSSWGFFDYWGQGTLVTVSS
VL: not shown
notes: fully human, human IgG4 Fc (H4H prefix); also called MAB2; REGN5715
As for B1, the “Percent Blocking (at 1 µg/mL each antibody)” value in test [1] was found to be 49%; in [2] it was 82.7%; in test [3], 81%; in [4] it was 38%; in test [5], 51%; in test [6], 82.9%. Besides, the “Percent Blocking (at 1 µg/mL each antibody)” value in [7] is 74%; in test [8], 66%; in [9], 56.4%; in test [10], 79%; in test [11] it was 52%.

B2: H4H17001P (antibody, human IgG4, V domains shown)
VH: QVQLVESGGGLVKPGGSLRLSCAASGFTFSDYYMNWIRQAPGKGLEWISLISSSGSAIYYSDSVKGRFTISRDNARKSLYLQVNSLRAEDTAVYYCARDRGEWALGAYYYGLDVWGQGTTVTVSS
VL: DIVMTQSPLSLPVTPGEPASISCRSSQSLLHSDGYNYLDWYLQKSGQSPQLLIYLGSNRASGVPDRFSGSGSGTDFTLKISRMEAEDVGVYYCMQALQTPYTFGQGTKLEIK
With B2, in [12], the “100 nM natural Bet v 1 Bound (RU)” value worked out at 71 RU, the Kd was 1 nM, the off-rate constant (koff) stood at 0.000329 s⁻¹ and the on-rate constant (kon) is 329000 M⁻¹ s⁻¹. The molecule further had a t½ in [12] of 35 min. Further, in test [13], the “100 nM natural Bet v 1 Bound (RU)” value was determined as 87 RU, the dissociation constant Kd came to 2.52 nM, the off-rate (koff) amounted to 0.00122 s⁻¹ and the kon turned out to be 485000 M⁻¹ s⁻¹. The molecule also had a t½ in test [13] of 9.5 min. Also, the binding result in test [14] is “no binding (tested: 50 µg/mL)”. In [15], the binding result is “no binding (tested: 100 nM)”. Moreover, the binding result in [16] is reported as “no binding (tested: 100 nM)”. Also, in [17], the binding result is given as “no binding (tested: 100 nM)”.

B3: H4H17015P (antibody, human IgG4, V domains shown)
VH: QVQLQESGPGLVKPSQTLSLTCTVSGGSISSADHYWSWIRQQPGKGLEWIGYISYRGTTYYNPTLESRVSISVDTFKNQFSLMLHSVTVADTAVYYCAKVLQGLVRFRDYGFDVWGQGTTVTVSS
VL: DIQLTQSPPFLSASVGDRVTITCWASQDISSYLAWYQQNPGKSPKLLIYDAFTLHTGVPSRFSGSGSGTEFTLTISSLQPEDFATFYCQHLYSFPFTFGPGTKVDIK
For the molecule B3, the “100 nM natural Bet v 1 Bound (RU)” value in [12] stood at 68 RU; in test [13] it was 84 RU. In addition, the dissociation constant Kd amounted to 1.34 nM in [12] and 2.7 nM in test [13]. The koff in [12] stood at 0.000246 s⁻¹; in test [13], 0.000792 s⁻¹. For the same molecule, the on-rate (kon) in test [12] is 184000 M⁻¹ s⁻¹; in test [13] it was 293000 M⁻¹ s⁻¹. The t½ was determined as 47 min in [12] and 15 min in test [13]. In addition, the binding result in test [18], in test [15], in test [19], in test [16] and in test [17] was “no binding (tested: 100 nM)” each time.

B4: H4H17045P2 (antibody, human IgG4, V domains shown)
VH: EVQLVESGGGLVQPGVSLRLSCVASGFTFSNYDITWIRQIPGKGLEWVSRISGSGGSTYFADSVKGRFIISRDNSKNTVYMQMNSLRAEDSAVYYCARRDSVLFSMNSWLDPWGQGTLVTVSS
VL: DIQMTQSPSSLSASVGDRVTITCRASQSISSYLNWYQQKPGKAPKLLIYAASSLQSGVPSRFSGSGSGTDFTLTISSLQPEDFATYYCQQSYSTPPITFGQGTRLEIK
As to B4, the “100 nM natural Bet v 1 Bound (RU)” value in test [12] was 69 RU; in test [13], 90 RU. Also, the results for the Kd in test [12] and in [13] were 1.22 nM and 1.86 nM, respectively. The off-rate constant (koff) in [12] turned out to be 0.000149 s⁻¹; in test [13], 0.000441 s⁻¹. Besides, the association rate constant (kon) is 122000 M⁻¹ s⁻¹ in test [12] and 237000 M⁻¹ s⁻¹ in [13]. The t½ in test [12] came out at 78 min; in test [13], 26 min. Also, the binding result in [18], in test [15], in [19], in test [16] and in test [17] was “no binding (tested: 100 nM)” throughout.

B5: H4H17067P2 (antibody, human IgG4, V domains shown)
VH: EVQLVQSGAEVKKPGESLKISCSGSGYRFTNYWIAWVRQMPGKGLEWMGLIHPDDSDIRYSPSFQGQVTFSVDKSINTAYLQWSSLKASDTAMYYCTRQDGILWSHNAWFDPWGQGTLVTVSS
VL: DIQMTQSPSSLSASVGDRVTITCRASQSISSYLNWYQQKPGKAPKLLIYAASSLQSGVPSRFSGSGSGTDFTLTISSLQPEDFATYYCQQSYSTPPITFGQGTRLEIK
Take B5: the “100 nM natural Bet v 1 Bound (RU)” value was 58 RU in test [12] and 80 RU in [13]. The results for the Kd in test [12] and in test [13] were 3.56 nM and 5.48 nM, respectively. Further, the koff in test [12] was determined as 0.000402 s⁻¹; in test [13], 0.00147 s⁻¹. Besides, the on-rate (kon) in test [12] came to 113000 M⁻¹ s⁻¹; in test [13] it was 268000 M⁻¹ s⁻¹. For the same molecule, the t½ in [12] turned out to be 29 min; in [13], 7.9 min. The binding result in test [18], in test [15], in [19], in [16] and in test [17] was “no binding (tested: 100 nM)” throughout.
